The test system of this test is rat osteosarcoma cells of the UMR line (UMR-106), adenylate cyclase activity. As to the kind of experiment: UMR-106 based adenylate cyclase assay (cAMP formation). It is filed as cell-based. The conditions noted are these: UMR-106 cells, radiometric cAMP formation; read-out: EC50 (concentration of PTH or variant effective for half-maximal stimulation of adenylate cyclase activity). The text has this: In the present specification, "bone stimulating activity" is defined in the context of the osetosarcoma-based adenylate cyclase assay employed conventionally in the art. Briefly, this assay provides an in vitro determination of the extent to which PTH stimulates adenylate cyclase activity in rat osteosarcoma cells of the `UMR` lineage, and thus provides an indication of PTH effects on bone tissue in vivo. Protocols for conducting the assay have been described by Rodan et al, 1983, J. Clin. Invest., 72:1511 (in which the osteosaracoma cells of the ROS lineage are employed) and by Rabbani et al, 1988, Endocrinol., 123:2709 (which employs the line UMR-106).
Thawed or fresh samples of human PTH(1-84) and of PTH variants obtained as described above were then evaluated for biological activity in a UMR-106 based adenylate cyclase assay and the protocol as described by Rabbini et al, 1988, Endocrinology, 123:2709, which is incorporated herein by reference. As noted, rat osteosarcoma cells of the UMR line are stimulated by PTH to produce adenylate cyclase, an enzyme which catalyzes intracellular conversion of ATP to its cylic monophosphate analogue, cAMP. In this assay therefore, PTH activity is determined by assaying radiometrically the formation of cAMP in PTH-stimulated UMR cells. The results of the assays, expressed in terms of EC50 (concentration of PTH or variant effective for half-maximal stimulation of adenylate cyclase activity), are presented in Table 1.

Take human PTH(1-84): the EC50 was found to be 0.002 µM.

B1: [Val^8 Leu^18 ]hPTH (protein, UniProt P01270 32-115, looked up, variant M8V M18L)
Parathyroid hormone: SVSEIQLVHNLGKHLNSLERVEWLRKKLQDVHNFVALGAPLAPRDAGSQRPRKKEDNVLVESHEKSLGEADKADVNVLTKAKSQ
modifications: Parathyroid hormone
As to B1, the EC50 came out at 0.11 µM.

B2: [Cys^8 Leu^18 ]hpTH (protein, UniProt P01270 32-115, looked up, variant M8C M18L)
Parathyroid hormone: SVSEIQLCHNLGKHLNSLERVEWLRKKLQDVHNFVALGAPLAPRDAGSQRPRKKEDNVLVESHEKSLGEADKADVNVLTKAKSQ
With B2, the EC50 turned out to be 0.2 µM.

B3: [Cys^8 ]hPTH (protein, UniProt P01270 32-115, looked up, variant M8C)
Parathyroid hormone: SVSEIQLCHNLGKHLNSMERVEWLRKKLQDVHNFVALGAPLAPRDAGSQRPRKKEDNVLVESHEKSLGEADKADVNVLTKAKSQ
For B3, the EC50 was determined as 0.4 µM.

B4: [Lys^8 Leu^18 ]: structurally related human PTH variant presented for comparison; Met8 replaced by Lys, Leu at 18 (protein, UniProt P01270 32-115, looked up, variant M8K M18L)
Parathyroid hormone: SVSEIQLKHNLGKHLNSLERVEWLRKKLQDVHNFVALGAPLAPRDAGSQRPRKKEDNVLVESHEKSLGEADKADVNVLTKAKSQ
modifications: Parathyroid hormone
As to B4, the EC50 was more than 5 µM.

B5: [Ala^8 ]hPTH (protein, UniProt P01270 32-115, looked up, variant M8A)
Parathyroid hormone: SVSEIQLAHNLGKHLNSMERVEWLRKKLQDVHNFVALGAPLAPRDAGSQRPRKKEDNVLVESHEKSLGEADKADVNVLTKAKSQ
modifications: Parathyroid hormone
Turning to B5, the EC50 is 1.2 µM.
